Columns and labels:
Assay in all cases: purified protein, by the assay type
Conditions in all cases: pH 8.0; 25.0 °C
[1] = substrate: Nc1ccc(C(=O)O)cc1
[2] = substrate: Nc1ccc(C(=O)O)c(O)c1
[3] = substrate: Nc1ccc(C(=O)O)c(F)c1

B1: S. aureus DHPS (Staphylococcus aureus) (protein)
chain: MTKTKIMGILNVTPDSFSDGGKFNNVESAVTRVKAMMDEGADIIDVGGVSTRPGHEMITVEEELNRVLPVVEAIVGFDVKISVDTFRSEVAEACLKLGVDIINDQWAGLYDHRMFQVVAKYDAEIVLMHNGNGNRDEPVVEEMLTSLLAQAHQAKIAGIPSNKIWLDPGIGFAKTRNEEAEVMARLDELVATEYPVLLATSRKRFTKEMMGYDTTPVERDEVTAATTAYGIMKGVRAVRVHNVELNAKLAKGIDFLKENENARHNFS
Km [1]: 2 ± 1 µM | kcat [1]: 170 ± 15 min^–1 | Km [2]: 8 ± 1 µM | kcat [2]: 220 ± 10 min^–1 | Km [3]: 5 ± 2 µM | kcat [3]: 200 ± 20 min^–1

Source: paper PMC6226330
